Test [1] deals with human CD3 (human) (UniProt P07766). Kind of test: FACS staining of Jurkat clone A1, relative to control antibody mIgG1 pacblue.
For test [2] the target is unchanged. The test can be described thus: FACS staining of Jurkat clone D7, relative to control antibody mIgG1 pacblue.
The target is the same in test [3]. Kind of test: FACS staining of Jurkat clone E6, relative to control antibody mIgG1 pacblue.
Test [4] shares this target. The test can be described thus: FACS staining of Jurkat clone F5, relative to control antibody mIgG1 pacblue.
Test [5] shares this target. Kind of test: FACS staining of Jurkat clone G3, relative to control antibody mIgG1 pacblue.
Test [6] shares this target. The test can be described thus: FACS staining of Jurkat clone H3, relative to control antibody mIgG1 pacblue.
Test [7] has the same target. Kind of test: FACS staining of Jurkat clone F11, relative to control antibody mIgG1 pacblue.
For test [8] the target is unchanged. The test can be described thus: FACS staining of Jurkat clone G10, relative to control antibody mIgG1 pacblue.
Test [9] shares this target. Kind of test: FACS staining of Jurkat clone G10 (passage P4), relative to control antibody mIgG1-pacblue.
The target is the same in test [10]. The test can be described thus: FACS staining of Jurkat clone G10 (passage P6), relative to control antibody mIgG1-pacblue.
Test [11] has the same target. The test can be described thus: FACS staining of Jurkat clone G10 (passage P12), relative to control antibody mIgG1-pacblue.
Test [12] has the same target. Kind of test: FACS staining of Jurkat clone G10 (passage P14), relative to control antibody mIgG1-pacblue.
For test [13] the target is unchanged. The test can be described thus: FACS staining of Jurkat clone G10 (passage P17), relative to control antibody mIgG1-pacblue.
For test [14] the target is unchanged. Kind of test: FACS staining of Jurkat clone G10 (passage ~P3), relative to control antibody mIgG1-pacblue.
In test [15] the target is T1, human LAG3 (human, UniProt P18627 23-525).
T1 construct: Expressed from a transgene on Jurkat cells
T1 sequence: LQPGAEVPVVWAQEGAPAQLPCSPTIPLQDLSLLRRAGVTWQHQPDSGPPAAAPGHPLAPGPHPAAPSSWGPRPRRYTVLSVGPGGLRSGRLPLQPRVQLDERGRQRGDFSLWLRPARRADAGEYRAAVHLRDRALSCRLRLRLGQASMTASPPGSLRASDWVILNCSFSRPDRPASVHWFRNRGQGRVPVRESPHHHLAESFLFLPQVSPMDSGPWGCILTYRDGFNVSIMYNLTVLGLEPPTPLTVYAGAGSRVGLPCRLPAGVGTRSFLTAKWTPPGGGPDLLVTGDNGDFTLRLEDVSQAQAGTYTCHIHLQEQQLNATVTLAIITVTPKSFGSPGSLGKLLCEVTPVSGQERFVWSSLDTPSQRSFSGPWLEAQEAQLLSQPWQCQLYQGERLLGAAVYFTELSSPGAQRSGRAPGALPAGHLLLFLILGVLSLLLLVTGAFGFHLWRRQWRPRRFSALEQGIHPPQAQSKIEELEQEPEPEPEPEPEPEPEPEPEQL
Kind of test: FACS staining of human LAG3 Jurkat clone G10 (passage P4), relative to control antibody Herceptin-DyLight 650.

In test [16] the target is T1, human LAG3. The test can be described thus: FACS staining of human LAG3 Jurkat clone G10 (passage P6), relative to control antibody Herceptin-DyLight 650.
The target in test [17] is T1, human LAG3. Kind of test: FACS staining of human LAG3 Jurkat clone G10 (passage P12), relative to control antibody Herceptin-DyLight 650.
In test [18] the target is T1, human LAG3. Kind of test: FACS staining of human LAG3 Jurkat clone G10 (passage P14), relative to control antibody Herceptin-DyLight 650.
The target of test [19] is T1, human LAG3. The test can be described thus: FACS staining of human LAG3 Jurkat clone G10 (passage P17), relative to control antibody Herceptin-DyLight 650.
Test [20] deals with T1, human LAG3. The test can be described thus: FACS staining of human LAG3 Jurkat clone G10 (passage ~P3), relative to control antibody Herceptin-DyLight 650.

human CD3 (human), sequence (P07766 23-207): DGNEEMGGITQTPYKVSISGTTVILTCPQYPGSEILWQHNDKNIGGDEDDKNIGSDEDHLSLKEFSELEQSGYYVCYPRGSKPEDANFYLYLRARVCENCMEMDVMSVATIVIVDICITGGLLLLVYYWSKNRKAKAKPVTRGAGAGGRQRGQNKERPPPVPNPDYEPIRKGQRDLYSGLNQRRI

Take “maHuCD3 pacblue (mouse anti-human CD3E antibody Clone SP34-2)”: the CD3 expression (Fold Change) in test [1] is 3.5 fold; in test [2] it was 3.4 fold; in test [3] it was 8.5 fold; in test [4] it was 7.5 fold; in test [5] it was 5.3 fold; in test [6], 5 fold. Moreover, the CD3 expression (Fold Change) was found to be 3.9 fold in [7]; 8.4 fold in test [8]; 7.2 fold in test [9]; 8 fold in test [10]; 6.4 fold in test [11]; 6.9 fold in test [12]. In addition, the values for the CD3 expression (Fold Change) in test [13] and in test [14] were 4.7 fold and 10.9 fold, respectively.

B1: Ab6: humanized anti-human LAG3 VH6 N55D/VL3, IgG4 S228P/Kappa (antibody, V domains shown)
VH: QMQLVQSGPEVKKPGTSVKVSCKASGYTFTDYNVDWVRQARGQRLEWIGDINPNDGGTIYAQKFQERVTITVDKSTSTAYMELSSLRSEDTAVYYCARNYRWFGAMDHWGQGTTVTVSS
VL: DIVMTQTPLSLSVTPGQPASISCKASQSLDYEGDSDMNWYLQKPGQPPQLLIYGASNLESGVPDRFSGSGSGTDFTLKISRVEAEDVGVYYCQQSTEDPRTFGGGTKVEIKR
notes: also called 51AHH; light chain 45AGX
Take B1: the “Lag3 Expression (Fold Change)” value in [15] came out at 5.6 fold; in [16] it was 2 fold; in test [17] it was 7.3 fold; in [18], 7.2 fold; in test [19], 7.3 fold; in test [20], 6.1 fold.

The record behind these values is patent US20170097333A1 (Merck Sharp & Dohme, published 2017).
